The nature of this series: label from the status in PepcDB records.
For the sequence “MKDGMKQQKLVEKMTIEEKAAILSGKTVWQTREIDRLSIPSIFLSDGPHGIRKQAGTGDHLGLNASLNATCFPTAATIANSWNQNLGEEIGQALGEEAASMDVNILLGPGLNIKRSPLCGRNFEYFSEDPYLSGKMAASYIRGIQSKGVYACPKHLAVNSQELRRMAMDAVVDERTLREIYLTGFEIAVKEGHAKAIMSSYNQINGIYANEDKHLLTDILRKDWGFDGIVVTDWGGSNDHVKGVAAGSNLEMPSCGYDSAREVIAAVQNGKLKEADLDERVGELVDAVMELTSGKKLSDKNFDRNEHHQLARKAAAESMILLKNEKQILPLDTKKSIAVIGDFAFSPRYQGAGSSMVNPTKVEDMSSILQQYDLNILGMTRGYHRNGDVDENDRKFALNLSMNADIVIFCFGLDEISESEGLDRTHMRIPQDQIDLLQDISKVNENVIGILSAGSAIEMPWHTCCKAILHGYLNGQAGASATLDILTGKVNPSGRLAETYPISYEQTPAYRYYPSNEKTSEYRESVYVGYRYYDTSKVRVQYPFGFGLSYTEFTYSDLIIEEDGIKVSVTNTGDRDGAEVVQMYVGLPNAIVFRPEKELKGFAKVYLKAGESRQIRIPFDDKTFRYWNIKTGQWEIETGTYQIMVGASVADIRLTGMTERTGNSKGYPYNPAKMPYYYTGIVQKISDEEFRELLGHEIPNRRWSGNLEINDAICQMYYAKSRLARLIYRCLTKMKKKSEAQGKPDLNILFIYNMPFRGIAKMTGGAVSMEMVYGIVDAVNGHFMLGVKKIIGGYFRNRRNNKKYEKLLKGAGGKCR”, the protein production result is “failed”.
The entry for “MKDIIITSQKIKRERNIYLICFLLSFAINIIAILVYTRPWIEIFTQLGYVLVISFFIYFILWIPRILVIGLRHLLRKKK” is “failed”.
Consider “MKDNYDAPESMLTGRVMYNGEALQLRGNEAVQLQLYQHGYAKHDPINVYVNQDGMYSANLFDGEYQMITKSGNGPWTSEGRDTINVTVAGNTVQDVEVTPYYLVRDAQMTLEGNKVNASFKVEKVAGGGIDRVFFMLSTTQFVNDAEHNVDRYDETDNLDAYDETGKLYTFATRDYTDNSMFQTALKRGTLFGRICIWPKGSDQGIYSKVIRLK”, for which the protein production entry is “not failed”.
Take “MKDSAQNFSTEKTGLKPVIRKIYDCLFDSYGPQGWWPLTELREAEGTNPTKTGSVQGYHPADYTYPQTRNQRFEIICGALLTQNTSWIQVEKALLNLKDLLSLKQINSFSPETIISLDTEILKEAIRPAGYYNQKAMRLKNLACWFLELENRIPARKELLSLKGVGPETADSILLYAFKQPSFVVDAYTKRIVTNLGLADEKAGYNEIKALFEENLPEDTTVYQEYHALLVEHAKRYYQKKSIRTNDIILKHVF”: the protein production entry is given as “failed”.
With “MKEALKKYNLPIVFVITYVFGCVFAMLCQNTAGEVIMNLLIFALIVLVIYAIIFNYVMYSKMSFGQNFLYILFSSIIYIFGLIFVMILSAVIGDSINNSNDDFGFLLMMFGTSFTMGIFFAYLIPIVPSAIVKLLCGHEKK”, the protein production entry is “failed”.
Consider “MKEFLNSLSYGISSHEVNNEFKQIFRELLTNHIIKEHKNKYYLNNGFAFGVLDISSKGTGFLQCFDESFKKDLLIENKNLKGANYKDIVAVKLLPLKKKRPSAKVILVLKRANETSLMITKRYGEAVLGMNIKTGLSTALKASQKSLKALPLGTILKIENENNNIIEVLGHIDDESVDEKISLALFNKNNEFSDACIKEALANGDSVDASMYENRMDLRALPFCTIDPIHAKDFDDAIYFDTQKREIYVAIADVSEYVYAYSAIDKEARNRGFSIYFPHIAIPMLPRPLSENICSLKPHLDRLAYCFKITLNHENKVIKEELFEGIINSKRRFNYDEVDEILIQKPDLKELSWLYELFEITKNLRKMRLKNAFEFRTEELRMNLDENLSLKSTVFEKDTPSHNLIEDCMLLANKAAAKLIDIGVFRNHLSADVRKIDKLLNELRELGIDVNFKPNLPELIRDIQALADELNLRAEVDKLIIKAQKKAEYSSVNAGHFGLGFDKYSHFTSPIRRYSDLILHRLLKAKQKNDEKLFNYLLLNIESTCENLSTLEREADKVAFDFMDRKFARWAAKNIGKKFKALVVQNDGVCIAKLDDEIKGADIILYDTRVNLLENVEVQIMEADIVMAKIYAKITQRLIKEENV”, for which the protein production result is “failed”.
The entry for “MKEIRIILMGTGNVGLNVLRIIDASNRRRSAFSIKVVGVSDSRSYASGRNLDISSIISNKEKTGRISDRAFSGPEDLMGEAADLLVDCTPASRDGVREYSLYRMAFESGMNVVTANKSGLANKWHDIMDSANQNSKYIRYEATVAGGVPLFSVLDYSILPSKVKRFRGIVSSTINYVIRNMANGRSLRDVVDDAIKKGIAESNPQDDLNGLDAARKSVILVNHIFGTEYTLNDVEYSGVDERSYNANDRLVTEVYVDDRRPVAVSRIISLNKDDFLMSIGMDGLGYQIETDSNGTVNVSDIYDGPYETAGAVVNDILLLSKVQK” is “failed”.
For the sequence “MKEIRYLVRQRLPFRGHDESDESANRGNFLELVKYTVGQNEVISKVVLENAPKNNQMVFDEMSEPLIPETRDPVPSSFLLLDLILDYPVVWQQTVQSNVSDKEQMAVVFRFVDKHGTVKERFIGLIHVKETSSASLKCAIDSLFAKRGLSMKQLRGQGYDGANNMKGEFNWLRSLILRENSSAYYIHCFAHQLQLVVVAVAKKQFEVGDFFDMISALLNVVGASCKGKDRIREEYLKEIEEGINQGEIKTGKGLNQELSLQRPGNTRWGTHYTTLHRLAHLFSVIIKLLEFVEEEGTDSTKRRQANGLLKYFNTFDFAFYLQLMLLLLGLTNSLSVALQKKDQDILNPMSLVKSTKQQLCKLRDDGWDSLVNEVFSFCKKHDIELVIMDGEFVNPRNPRKRSNMTNFHHYQVECFYTILDMQIQEFNDRFDEVNTELLSCVASLSPIDSFHEFDQLKVLRLSEFYPQDFTHVDRRSLEHQLGLYIDNIREDERFAN”, the protein production entry was “failed”.
Take “MKEKGGDSLKYCYQCGLCDSVCPWNRVRQFSMRKIVRQGTFGLTEIEQEDIWRCSTCGTCPSRCPRGVNQIEAGVAMRRIGAEYDVLEHHHHHH”: the protein production entry was “failed”.
The entry for “MKEKVSVPFMLLGILFNVCLIAANLLETKVIQVGSITVTAGLLVFPISYIINDCIAEVWGFKKARLIIWSGFAMNFFVVALGLIAVALPAAPFWEGEQHFDFVFGMAPRIVVASLLAFLVGSFLNAYVMSKMKVASGGRNFSSRAIWSTMVGETADSLIFFPIAFGGLIAWPELLVMMGTQIVLKSLYEVIILPITIRVVKAVKRIDGSDVYDTDISYNVLKVKDI” is “failed”.
The entry for “MKEKVVIITGGSSGMGKGMATRFAKEGARVVITGRTKEKLEEAKLEIEQFPGQILTVQMDVRNTDDIQKMIEQIDEKFGRIDILINNAAGNFICPAEDLSVNGWNSVINIVLNGTFYCSQAIGKYWIEKGIKGNIINMVATYAWDAGPGVIHSAAAKAGVLAMTKTLAVEWGRKYGIRVNAIAPGPIERTGGADKLWISEEMAKRTIQSVPLGRLGTPEEIAGLAYYLCSDEAAYINGTCMTMDGGQHLHQYPF” is “not failed”; for “MKELAGKNLGVTTRFVLRYVFQNTIHSIWRERNERRHGEKPSRTEKIVKLIDKNIRNRLSTIRVRGEEKYAQGTQMRFASRQYQIDRTFL” it is “failed”.
On to “MKELIRKLTEAFGPSGREEEVRSIILEELEGHIDGHRIDGLGNLIVWKGSGEKKVILDAHIDEIGVVVTNVDDKGFLTIEPVGGVSPYMLLGKRIRFENGTIGVVGMEGETTEERQENVRKLSFDKLFIDIGANSREEAQKMCPIGSFGVYDSGFVEVSGKYVSKAMDDRIGCAVIVEVFKRIKPAVTLYGVFSVQEEVGLVGASVAGYGVPADEAIAIDVTDSADTPKAIKRHAMRLSGGPALKVKDRASISSKRILENLIEIAEKFDIKYQMEVLTFGGTNAMGYQRTREGIPSATVSIPTRYVHSPSEMIAPDDVEATVDLLIRYLGA”, for which the protein production entry was “not failed”.
With “MKESNHLMDTPYSYLIRSIGMKLKTSADARLAELGLNSQQGRMIGYIYENQESGIIQKDLAQFFGRRGASITSMLQGLEKKGYIERRIPENNARQKNIYVLPKGAALVEEFNNIFLEVEESITKGLTKDEQKQLMSILIKVNRSM”, the protein production entry is given as “not failed”.
The entry for “MKESSTLLQNLARSLPRLNMGILLGLALLLFATLYWTLERLFDEQNSNVRLHFAQLMENIQEQELFLKRLAARHSIDALSLDAPHHLNLQAFPPTAGQQSPFATPFSLSLSPQQPAAGELPRVFALGLQLSSFYSAFWSGSQHVAPRTFVFKTFGHFDISHPEGNTAPDIGVADQVLHQQLVKSDGFADHQIHWQQYRPPASEALPTRFLAYINLHEPAPPLDVQGGNDWSVVASLLSLDDLNHLEHTRHWSIYDDFTLIEPSGTALTGDPAPADVLGEGLNFGLQGMIVKVTSQTPQLWTGLYAISYRNYLDYALWAMLSLLALGVGSIACGWAASRWYRNKVVVPAQRAQQCLNESEDFNRVVIDTVPSGLCVVSRDNLQVILQNRQAEQWQGTAQLLSRLAQDRSLIDGGETSLDIDGRYLQVEFVSTRYQRQDVLVCTFNDVTRHVEDARALDRARRSADAANAAKTLFLATMSHEIRTPLYGVLGTLELLGLTRLDSRQSDYLQTIQRSSSTLFQLISDVLDVSRIEAGQMSIDPLEFCPLDMLEDVLHAHAASAQRRGLLFYACIDPNLPDLLLGDAARISQILNNLLSNAIKFTESGRVVLRVRLLELRDQQARIEWQVTDTGIGISAQQQPQLFVPFFQVRDASNEAGAGLGLAICERLCQMMGGQMQVTSEPGLGSSFSLRLTLRCLPGGLPPLLPWPEGSPVYVRAPVPELLKNTCDWLGRLGVPAHPPPPGWSDEPQTGVLIDMLPRDGLASWPGPCVSAVSGGGSGRLPQATSWQVDAHDIRAIAQAAVLAHQGLPLYQAQHRAGRMGQLNLRILVAKHSPINQAIIKEQLQALGCQVTLSANGKQALEHWQPQRFDIVITDVNMPLMNGYELARELRRRDPQLPIIGVTANALREEGIRCLAAGMNTWIVKPMNLQTLRGHLSKLCPTSTATAAPSIPPAAPSRPPPDTAQGDRIQVTEKMRPLFLSTMHEDLRRLAEALDSGAGKIAAARLHSIAGAMGAVQAAPLAKACAELECRLLEGALTADLQAQARQLMQRLSRLLLPLE” is “failed”; for “MKETTIYGRLVMAVKNTAQVVIGGKIITLGGYESEEYFQKVASYINNKIAELSEMPGYTRQPVETKHTLLSLNVTDDYFKAKKQAEIFEQDLQQKDQEMYELKHELIALRMKIEETEKNAQEAQQQKELLEGKVKELNDEIDKLLK” it is “not failed”.
For “MKEVIHSTLAPKAIGPYSQAIATNDLVFVSGQLGIDVSTGEFKGADIHSQTTQSMENIKAILKEAGLGMDSVVKTTILLKSLDDFAVVNGIYGSYFTEPYPARATFQVAKLPKDALVEIEAIAIK”, the protein production result is reported as “failed”.
For “MKFAIITDVHGNFDALQTVLDDIDNREDIDKIYNLGDNIGIGHETNKVLDTIFDRDDMEIIAGNHDEAVMSLVNNTPYPEDLKDKFYEHHQWIESHMDEDYYDQLNLLPRYIEKTICGKKLLFIHYEIENQKLETGIEGQPFSPITENSKENIIELFKDKDADLIAFGHNHQMHLYDDNKTIYFNPGAVGLNNGANAVYGIVTINDNEFSIERIKLPYDNEEYLQGFDEKQVPAKQLIFEHFL”, the protein production result is listed as “failed”.
To “MKFCSQCGGEVILRIPEGDTLPRYICPKCHTIHYQNPKVIVGCIPEWENKVLLCKRAIAPYRGKWTLPAGFMENNETLVQGAARETLEEANARVEIRELYAVYSLPHISQVYMLFRAKLLDLDFFPGIESLEVRLFGEQEIPWNDIAFRVIHDPLKRYMEERHHGQPAFHLGIINKPQAGSNSNE” belongs “not failed”; to “MKFFSLADEAEFKSIIISKNKAVDVIGSKLGGQVVSFSDEWFASAENLIQPTAPIRDPTRFVHSGAWYDGWETRRHNEMEYDWVIIKMGVAAAHIIGGEIDTAFFNGNHAPFVSIEALYDEGEEGNIVEDDSRWVEIVEKFECGPSQRHLFVRGNGLTKERFTHIKLKMYPDGGIARFRLYGRVVPPELKTKDHIIDLAYVCNGAVALKYSDQHFGSVDNLLLPGRGHDMSDGWETKRSRQPGHTDWAVIQLGRESSFIEKIIVDTAHFRGNFPQFITVEGCLKESESSENTGEGTWVELVGKSKTGPDKEHVYEIRKSIRVSHVKLTIIPDGGVKRIRVWGY”, “not failed”.

Values taken from a protein production outcome set (Wang et al. 2014).
